# In patent US20110300138A1 (published 2011):
# B1: K1-18 IgG (antibody, V domains shown)
# VH: EVQLVQSGAEVKKPGESLKISCKGSGYSFTNYWIGWVRQMPGKGLEWMGIIYPYDSDTRYSPSFEGQVTISADKSIRTAYLHWSSLKASDTAMYYCVRPRDGSYPYDAFDIWGQGTMVTVSS
# VL: EIVLTQSPGTLSLSPGERATLSCRASQSVSNNYLAWYQQKPGQAPRLLIYGASSRATGIPDRFSGSGSGTDFTLTISRLEPEDFAVYYCQHCGSSLRAFGQGTKVEIKR
# notes: Human IgG1 kappa purified from hetero-hybridoma supernatant; it is not part of the secreted protein; also called human monoclonal TSHR autoantibody K1-18 (stimulating)
# B2: K1-18 Fab (Fab, V domains shown)
# VH: B1 VH
# VL: B1 VL
# B3: K1-70 IgG (antibody, V domains shown)
# VH: EVQLVQSGAEVKKPGQSLKISCKASGYSLTDNWIGWVRQKPGKGLEWMGIIYPGDSDTRYSPSFQGQVTISADKSINTAYLQWSSLKASDTAIYYCVGLDWNYNPLRYWGPGTLVTVSS
# VL: QSVLTQPPSVSAAPGQKVTISCSGSSSDIGSNYVSWYQQFPGTAPKLLIYDNNKRPSAIPDRFSGSKSGTSATLGITGLQTGDEADYYCGTWDSRLGIAVFGGGTQLTVLG
# notes: Human IgG1 lambda purified from hetero-hybridoma supernatant
# B4: K1-70 Fab (Fab, V domains shown)
# VH: B3 VH
# VL: B3 VL
# Target: T1, thyroid stimulating hormone receptor (full length human TSHR) (human, UniProt P16473 22-764)
# T1 construct: Full length TSHR coated onto plastic tubes (TSHR coated tubes, as in WO2004/050708A2); also called TSH receptor
# Experiment: competitor ^125I-K1-70 IgG, TSHR coated tubes; 0.001 µg/mL in assay buffer
# Procedure: (§1) Binding inhibition assays were carried out using TSHR coated tubes as described in WO2004/050708A2. […] After aspiration, the tubes were washed and 100 μL of ¹²⁵I-labelled protein (5×10⁴ cpm) added and incubated for 1 hour at room temperature with shaking. The tubes were then aspirated, washed and counted in a gamma counter. Inhibition of labelled protein binding was calculated as 100×[1−(cpm bound in the presence of test material/cpm bound in the presence of control material)].
row,Binder,Inhibition of binding (%)
1,B1,7.2
2,B2,13.8
3,B3,15.3
4,B4,12.2

# Target: T1, thyroid stimulating hormone receptor …
# Experiment: competitor ^125I-K1-70 IgG, TSHR coated tubes; 1 µg/mL in HBD
# Procedure: as §1
row,Binder,Inhibition of binding (%)
1,B1,85.8
2,B2,75.6
3,B3,90.4
4,B4,89.5

# Target: T1, thyroid stimulating hormone receptor …
# Experiment: competitor ^125I-K1-70 IgG, TSHR coated tubes; 3 µg/mL in HBD
# Procedure: as §1
row,Binder,Inhibition of binding (%)
1,B1,91
2,B2,80.5
3,B3,91.7
4,B4,90.9

# Target: T1, thyroid stimulating hormone receptor …
# Experiment: competitor ^125I-K1-70 IgG, TSHR coated tubes; 0.003 µg/mL in HBD
# Procedure: as §1
row,Binder,Inhibition of binding (%)
1,B1,-2.7
2,B2,-3.5
3,B3,2.2
4,B4,5.6

# Target: T1, thyroid stimulating hormone receptor …
# Experiment: competitor ^125I-K1-70 IgG, TSHR coated tubes; 100 µg/mL in assay buffer
# Procedure: as §1
row,Binder,Inhibition of binding (%)
1,B1,92.9
2,B2,86
3,B3,93.8
4,B4,91.5

# Target: T1, thyroid stimulating hormone receptor …
# Experiment: competitor ^125I-K1-70 IgG, TSHR coated tubes; 0.3 µg/mL in HBD
# Procedure: as §1
row,Binder,Inhibition of binding (%)
1,B1,73.9
2,B2,60.9
3,B3,82.7
4,B4,87.3

# Target: T1, thyroid stimulating hormone receptor …
# Experiment: competitor ^125I-K1-70 IgG, TSHR coated tubes; 10 µg/mL in HBD
# Procedure: as §1
row,Binder,Inhibition of binding (%)
1,B1,92.5
2,B2,82
3,B3,93.1
4,B4,90.6

# Target: T1, thyroid stimulating hormone receptor …
# Experiment: competitor ^125I-K1-70 IgG, TSHR coated tubes; 30 µg/mL in assay buffer
# Procedure: as §1
row,Binder,Inhibition of binding (%)
1,B1,91.2
2,B2,83.3
3,B3,93.1
4,B4,90.7

# Target: T1, thyroid stimulating hormone receptor …
# Experiment: competitor ^125I-K1-70 IgG, TSHR coated tubes; 100 µg/mL in HBD
# Procedure: as §1
row,Binder,Inhibition of binding (%)
1,B1,93.5
2,B2,83.6
3,B3,93.6
4,B4,90.8

# Target: T1, thyroid stimulating hormone receptor …
# Experiment: competitor ^125I-K1-70 IgG, TSHR coated tubes; 1 µg/mL in assay buffer
# Procedure: as §1
row,Binder,Inhibition of binding (%)
1,B1,89.6
2,B2,78.5
3,B3,90.8
4,B4,88.3

# Target: T1, thyroid stimulating hormone receptor …
# Experiment: competitor ^125I-K1-70 IgG, TSHR coated tubes; 0.001 µg/mL in HBD
# Procedure: as §1
row,Binder,Inhibition of binding (%)
1,B1,-3
2,B2,0.5
3,B3,-7.6
4,B4,-3.6

# Target: T1, thyroid stimulating hormone receptor …
# Experiment: competitor ^125I-K1-70 IgG, TSHR coated tubes; 0.01 µg/mL in HBD
# Procedure: as §1
row,Binder,Inhibition of binding (%)
1,B1,3.1
2,B2,1.1
3,B3,11.4
4,B4,21.6

# Target: T1, thyroid stimulating hormone receptor …
# Experiment: competitor ^125I-K1-70 IgG, TSHR coated tubes; 0.03 µg/mL in assay buffer
# Procedure: as §1
row,Binder,Inhibition of binding (%)
1,B1,53.9
2,B2,31.3
3,B3,74.2
4,B4,81.7

# Target: T1, thyroid stimulating hormone receptor …
# Experiment: competitor ^125I-K1-70 IgG, TSHR coated tubes; 0.1 µg/mL in HBD
# Procedure: as §1
row,Binder,Inhibition of binding (%)
1,B1,48.6
2,B2,38.4
3,B3,62.8
4,B4,76.5

# Target: T1, thyroid stimulating hormone receptor …
# Experiment: competitor ^125I-K1-70 IgG, TSHR coated tubes; 0.003 µg/mL in assay buffer
# Procedure: as §1
row,Binder,Inhibition of binding (%)
1,B1,17
2,B2,15.2
3,B3,24
4,B4,32.7

# Target: T1, thyroid stimulating hormone receptor …
# Experiment: competitor ^125I-K1-70 IgG, TSHR coated tubes; 0.1 µg/mL in assay buffer
# Procedure: as §1
row,Binder,Inhibition of binding (%)
1,B1,77.9
2,B2,62.8
3,B3,87.1
4,B4,87.5

# Target: T1, thyroid stimulating hormone receptor …
# Experiment: competitor ^125I-K1-70 IgG, TSHR coated tubes; 30 µg/mL in HBD
# Procedure: as §1
row,Binder,Inhibition of binding (%)
1,B1,92.2
2,B2,83.2
3,B3,94.3
4,B4,91

# Target: T1, thyroid stimulating hormone receptor …
# Experiment: competitor ^125I-K1-70 IgG, TSHR coated tubes; 0.03 µg/mL in HBD
# Procedure: as §1
row,Binder,Inhibition of binding (%)
1,B1,20
2,B2,10.2
3,B3,33.6
4,B4,49.6

# Target: T1, thyroid stimulating hormone receptor …
# Experiment: competitor ^125I-K1-70 IgG, TSHR coated tubes; 3 µg/mL in assay buffer
# Procedure: as §1
row,Binder,Inhibition of binding (%)
1,B1,90.5
2,B2,79.4
3,B3,90.7
4,B4,89.4

# Target: T1, thyroid stimulating hormone receptor …
# Experiment: competitor ^125I-K1-70 IgG, TSHR coated tubes; 0.01 µg/mL in assay buffer
# Procedure: as §1
row,Binder,Inhibition of binding (%)
1,B1,30.2
2,B2,23.7
3,B3,50.9
4,B4,64.8

# Target: T1, thyroid stimulating hormone receptor …
# Experiment: competitor ^125I-K1-70 IgG, TSHR coated tubes; 10 µg/mL in assay buffer
# Procedure: as §1
row,Binder,Inhibition of binding (%)
1,B1,91.8
2,B2,81.9
3,B3,92.3
4,B4,89.8

# Target: T1, thyroid stimulating hormone receptor …
# Experiment: competitor ^125I-K1-70 IgG, TSHR coated tubes; 0.3 µg/mL in assay buffer
# Procedure: as §1
row,Binder,Inhibition of binding (%)
1,B1,86.4
2,B2,71.4
3,B3,89.2
4,B4,88
